Data reported in patent US20210108251, “DETECTION OF ENDONUCLEASE ACTIVITY” (AARHUS UNIVERSITET, published 2021).

B1: REN2-ID33-EcoRI (structured_DNA)
DNA: ATTTGACGAATTCGTCGTATAGGAACTTCGAACGACTCGCCTCAATGCACATGTTTGGCTCCCGAGTCGTTCGAAGTTCCTATACGACGAATTCGTCAAAT
modifications: 5'-amine and 3'-amine
B2: REN2-PB-EcoRI (structured_DNA)
DNA: ATTTCCAGAATTCTGGGTATAGGAACTTCGAACGACTCGACTGTGAAGATCGCTTATCGAGTCGTTCGAAGTTCCTATACCCAGAATTCTGGAAAT
modifications: 5'-amine and 3'-amine

Legend:
EcoRI [1] = target: T1, EcoRI (UniProt P00642 P00642:2-277); experiment: cleavage_in_vitro; assayed as pair with SEQ 2; cleavage-ligation-RCA readout; Mg acetate pH 7.9, 37 C; std error 6.6; settings: tags: Thermo Scientific; chain copies: 2; hairpin
Procedure: (§1) For detection of EcoRI activity, 50 pmol of each of the two substrates REN2-ID33-EcoRI (SEQ ID NO: 1) and REN2-PB-EcoRI (SEQ ID NO: 2) were incubated for 1 h at 37° C. either with or without 10 units of EcoRI. The reaction was done in a reaction buffer containing 500 mM Potassium Acetate; 200 mM Tris-acetate; 100 mM Magnesium Acetate; and 1 mg/ml BSA (pH 7.9). The reaction volume was 50 μL. After incubation, the restriction endonuclease was inactivated by heating to 94° C. for 10 minutes. ATP was added to a final concentration of 10 mM and 1 unit of T4 ligase (Invitrogen) was added. The reaction mixture was then incubated over night at room temperature.
(§2) The two substrate molecules carrying the EcoRI cleavage sites (see materials and methods) were incubated with or without purified enzyme and subjected to the protocol as described in materials and methods (see also FIG. 1A). After counting the signals, the fold increase over background (no enzyme) was calculated.

EcoRI [2] = target: T1, EcoRI; experiment: cleavage_in_vitro; assayed as pair with SEQ 1; cleavage-ligation-RCA readout; Mg acetate pH 7.9, 37 C; std error 6.6; settings: tags: Thermo Scientific; chain copies: 2; hairpin
Procedure: as §1, §2

T1 sequence (P00642 2-277, one chain of several): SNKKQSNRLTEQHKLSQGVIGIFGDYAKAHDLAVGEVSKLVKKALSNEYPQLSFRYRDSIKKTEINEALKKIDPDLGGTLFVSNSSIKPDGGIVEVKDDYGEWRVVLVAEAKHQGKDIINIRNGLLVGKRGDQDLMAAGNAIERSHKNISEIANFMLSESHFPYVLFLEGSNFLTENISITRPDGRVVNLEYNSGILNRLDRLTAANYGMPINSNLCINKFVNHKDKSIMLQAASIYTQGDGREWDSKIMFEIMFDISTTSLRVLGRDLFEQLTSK

Row | Binder | activity (EcoRI [1]) | activity (EcoRI [2])
1 | B1 | 110 fold over no enzyme | –
2 | B2 | – | 110 fold over no enzyme
